Molecular target: mouse CSL (amino acid residues 53-474), conserved and structurally ordered core domain (mouse, UniProt P31266 53-474)
Experiment: ITC

Sequence of mouse CSL (amino acid residues 53-474), conserved and structurally ordered core domain (P31266 53-474): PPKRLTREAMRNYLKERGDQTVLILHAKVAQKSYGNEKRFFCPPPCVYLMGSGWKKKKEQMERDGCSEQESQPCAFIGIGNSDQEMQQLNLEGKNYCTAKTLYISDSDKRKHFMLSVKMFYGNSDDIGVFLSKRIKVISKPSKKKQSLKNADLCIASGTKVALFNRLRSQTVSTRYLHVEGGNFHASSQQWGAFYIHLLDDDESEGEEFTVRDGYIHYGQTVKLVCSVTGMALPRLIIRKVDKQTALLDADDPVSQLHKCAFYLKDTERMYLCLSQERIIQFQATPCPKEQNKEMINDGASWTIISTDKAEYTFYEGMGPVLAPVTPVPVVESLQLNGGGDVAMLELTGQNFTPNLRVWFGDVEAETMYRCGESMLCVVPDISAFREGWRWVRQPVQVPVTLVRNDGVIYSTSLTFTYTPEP

| Binder | Ka [M⁻¹] |
| --- | --- |
| ARRKREHSTLWFPEGFKV [human NOTCH3 RAM peptide (residues 1665-1682), nonphosphorylated] | 5.49e+06 |
| VLLSRKRRRQHGQLWFPEGFKVSEASKK [human NOTCH1 RAM peptide (residues 1754-1781)] | 4.63e+07 |

Reference: PMC8100066 (2021)
